# Data taken from IntAct's records for PubMed 11583623.
# B1: Serine protease HTRA2, mitochondrial (Homo sapiens), O43464 (parent)
# chain: MAAPRAGRGAGWSLRAWRALGGIRWGRRPRLTPDLRALLTSGTSDPRARVTYGTPSLWARLSVGVTEPRACLTSGTPGPRAQLTAVTPDTRTREASENSGTRSRAWLAVALGAGGAVLLLLWGGGRGPPAVLAAVPSPPPASPRSQYNFIADVVEKTAPAVVYIEILDRHPFLGREVPISNGSGFVVAADGLIVTNAHVVADRRRVRVRLLSGDTYEAVVTAVDPVADIATLRIQTKEPLPTLPLGRSADVRQGEFVVAMGSPFALQNTITSGIVSSAQRPARDLGLPQTNVEYIQTDAAIDFGNSGGPLVNLDGEVIGVNTMKVTAGISFAIPSDRLREFLHRGEKKNSSSGISGSQRRYIGVMMLTLSPSILAELQLREPSFPDVQHGVLIHKVILGSPAHRAGLRPGDVILAIGEQMVQNAEDVYEAVRTQSQLAVQIRRGRETLTLYVTPEVTE
# Variants of: B1
# Conditions: with xiap_human XIAP
row,effect of a mutation on the interaction,Variant
1,disrupting interaction,MAAPRAGRGAGWSLRAWRALGGIRWGRRPRLTPDLRALLTSGTSDPRARVTYGTPSLWARLSVGVTEPRACLTSGTPGPRAQLTAVTPDTRTREASENSGTRSRAWLAVALGAGGAVLLLLWGGGRGPPAVLAMVPSPPPASPRSQYNFIADVVEKTAPAVVYIEILDRHPFLGREVPISNGSGFVVAADGLIVTNAHVVADRRRVRVRLLSGDTYEAVVTAVDPVADIATLRIQTKEPLPTLPLGRSADVRQGEFVVAMGSPFALQNTITSGIVSSAQRPARDLGLPQTNVEYIQTDAAIDFGNSGGPLVNLDGEVIGVNTMKVTAGISFAIPSDRLREFLHRGEKKNSSSGISGSQRRYIGVMMLTLSPSILAELQLREPSFPDVQHGVLIHKVILGSPAHRAGLRPGDVILAIGEQMVQNAEDVYEAVRTQSQLAVQIRRGRETLTLYVTPEVTE [A134M]
